These results are taken from article PMC8325959.

The test deals with recombinant human GST–PBD (UniProt P53350). Nature of the test: in vitro binding assay, western blot quantification. Particulars: read off a plot. (A western blot detects proteins with antibodies after separation by electrophoresis.)
Chain of UniProt P53350 (P53350 whole entry, looked up): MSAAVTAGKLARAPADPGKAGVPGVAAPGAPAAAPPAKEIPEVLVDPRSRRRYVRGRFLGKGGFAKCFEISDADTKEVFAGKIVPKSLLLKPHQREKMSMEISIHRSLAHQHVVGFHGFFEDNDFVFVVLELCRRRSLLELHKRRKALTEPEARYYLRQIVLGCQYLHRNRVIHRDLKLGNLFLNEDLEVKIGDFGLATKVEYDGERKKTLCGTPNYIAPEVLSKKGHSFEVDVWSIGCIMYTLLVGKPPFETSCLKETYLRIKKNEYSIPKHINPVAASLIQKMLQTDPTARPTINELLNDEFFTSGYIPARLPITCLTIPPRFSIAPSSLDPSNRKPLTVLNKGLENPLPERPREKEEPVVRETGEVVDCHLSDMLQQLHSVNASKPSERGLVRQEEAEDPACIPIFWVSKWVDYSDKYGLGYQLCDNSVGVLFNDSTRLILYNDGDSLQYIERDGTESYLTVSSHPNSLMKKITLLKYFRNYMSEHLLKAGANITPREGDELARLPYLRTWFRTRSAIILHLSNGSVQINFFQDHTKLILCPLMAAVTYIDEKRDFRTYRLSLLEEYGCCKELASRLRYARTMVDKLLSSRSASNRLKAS

On to “MBP–CTa (WT Ana1 CTa fragment), pre-treated with PLK1 S10T”, for which the response (single repeat PLK1 + CTa, MBP–CTa pre-treated with PLK1 (+), parent: est. 1.0) amounted to 1.1 a.u.

On to “MBP–CTb (WT Ana1 CTb fragment), phosphorylated by Aurora A in vitro S10T”, for which the response runs as follows: (repeat Aurora #1, MBP–CTb pre-treated with Aurora A (+), parent: est. 1.4) 1.2 a.u; (repeat Aurora #2, MBP–CTb pre-treated with Aurora A (+), parent: est. 1.5) 1.2 a.u.

“MBP–CTb (WT Ana1 CTb fragment), phosphorylated by PLK1 in vitro (from UniProt Q9VC64) S10T”: the response turned out to be 1.1 a.u (repeat PLK1 #1, MBP–CTb pre-treated with PLK1 (+), parent: est. 1.7); 1.5 a.u (repeat PLK1 #2, MBP–CTb pre-treated with PLK1 (+), parent: est. 1.9); 1.4 a.u (repeat PLK1 #3, MBP–CTb pre-treated with PLK1 (+), parent: est. 1.8); 1.3 a.u (repeat PLK1 #4, MBP–CTb pre-treated with PLK1 (+), parent: est. 2.2).

For the substance “MBP–CTb (WT Ana1 CTb fragment), pre-treated with buffer S10T”, the response turned out to be 1 a.u (repeat Aurora #1, no kinase (-), parent: est. 1.4); 1 a.u (repeat Aurora #2, no kinase (-), parent: est. 1.3); 1 a.u (repeat PLK1 #1, no kinase (-), parent: est. 1.1); 1 a.u (repeat PLK1 #2, no kinase (-), parent: est. 1.2); 1 a.u (repeat PLK1 #3, no kinase (-), parent: est. 1.3); 1 a.u (repeat PLK1 #4, no kinase (-), parent: est. 1.3).
